According to US20160051654A1 (IMMATICS BIOTECHNOLOGIES, published 2016):
Ends that are not written are not given here.

What was measured:
[1] = target: T1, HLA-A*0201 (recombinant HLA-A*0201 heavy chain with human beta-2 microglobulin) (human); assay: ELISA-based refolding assay: recombinant HLA-A*0201, b2m and graded peptide
[2] = target: T1, HLA-A*0201 (recombinant HLA-A*0201 …); assay: EpI ELISA: refolding of recombinant HLA-A*0201 with b2m and graded peptide

Binder | binding result [2] | other results
KLTDIQIEL [JAK-001] | – | binding result [1]: binds
KLMDLDVEQL (also called IMA-PCN-001) [PCN-001] | binds | –
ALSNLEVTL (also: acetate salt, also called IMA-C20-001) [C20-001] | binds | –
ALFVRLLALA (also called IMA-TGFBI-001) [TGFBI-001] | – | fold lower KD compared with the majority of peptides [2]: 100 fold
KLGDFGLATVV [DCA-001] | – | binding result [1]: binds
ILAPVILYI (also called IMA-NOX-001) [NOX-001] | binds | –
KIFDEILVNA (also called IMA-TOP-001) [TOP-001] | binds | –
